# Experimental data published in the DeepSol protein solubility set.
# Experiment: soluble on expression in E. coli; label from the status in PepcDB or PDB records
row,Sequence,soluble on expression in E. coli
1,MSLRIVFKIGSNLLETDEGDIDLSFLSKLAEGIKKLHSFGDKVLIVSSGAVLSGAKKLGIKEKPKDLTLKQALASVGQSYLMHLYDTIFSNYGLKVGQVLLTKDVFSKEKEERFKNAKSTLEKLLELGVVPVINENDAVAVEELVFGDNDFLAVYVSFMVNADLLVIFSSAGGLKDDKDRIIPVVEDIEKVFKYVRGTGTSFGTGGMRSKLEATRLATTLNIPVIITSKEENILDLRNLKTKGTLFKPSKRKLRNALKVIATLEEPKGIIVVDRGAQEALKAGKSLLPAGVVSVQGNFKRGDVVSIQNEEGLIIGKGKVNFSSEEIEKIKGLKTSEVRKLLNTTKDEVIHRDNMVIFLEGHHHHHH,not soluble
2,MTGFAPQAGLPSHSVQVADHFDGNSPRGSPMSSGGHPVDRNRGLQPQKEAFSGPAAGKPFHPQALSKYSRHYSPEDELSAEAQPIAAYKIVSQSNKQLLAGSVSVTSLSSRTTELATADPFALAPFPSKAGKQKP,soluble
3,MGSDKIHHHHHHEPYSEIIEEDYVPTEADEIALLATTYSQLRFVMDWYGLFDLQEESGDVIVTPTRPNGWDDGGTYKQMHKHTWDNQQGQPQSIWDYCYKGIANANKILKRADEGFFTEESKPKVVAEVKGVRALWYSILCDTHGNIPIQTSFSEEVPVQSTRKQVFDFIINELKEVMPNLPTEVNKSTYGRLTQWGAKCLMARMYLNAGVYTGTPMWNECLEQCNDIINSGLFSLETNYTDIFKTENSGCVETIFAIPYDEVYNEGDNNGPVFGAHMKFLSSNSRKVFNMQTTPWGGSAANPQFINSYDPDDMRLKYTWLQGDQYSPDGVLITTFPNKLPSIYKTDTDDGYRVGKYEIKVGAKSLLSNDFPYFRYTEVLLMKAECLLRLGQNETEAAHIVSQIRERAFRESAHPEKATVDAAWLKGDTHINYGTLDEKGQIDDAGNTEVVELGGLYDEWGWEFAAEARRRTDMIRFGTYQKKSWFNHTPTANDLNGNSILFPIHLDHLNTNPNLQQNPGYAGK,not soluble
4,MGSDKIHHHHHHVKVLVTGAAGFIGYSLATRLLARGDEVIGVDIVNDYYDPRLKEARLARLAQQGGGRFTFLRTDFADYPALTAALEGAHFDRIVHLGAQAGVRYSIENPHAYVQSNLVGHVNLLEVARHRGVEHMVYASSSSVYGGNTKLPFSVDDRVDHPLSLYAATKKADELMSETYAHLYRLPLTGLRFFTVYGPWGRPDMMMWLFTRAILAGEPIQVFNHGDMYRDFTYVDDIVSGVVACLDNPPLDDGAPKAGGSLKPHRLYNIGNHKSEHLMKVIAILEAELGRKAEMRMLPMQPGDVRQSFADIDAISGDLGYRPTTGIETGVPNFVRWYKDYHGL,not soluble
5,MTICSVNNVTKSFGGNIIFENISLEIKNGERVGLVGRNGSGKTTIFQLLTGMESLDAGAIHMKKGTRIGHVAQIPKFDESMTVYEVLSSAFKIEKELEREMRTLEKDMAEEQESSVLQKLMERYGIIQEKFAFLGGYEIEANIMKVANGLQVTELFPRSFLELSGGEQTKVSLAYMLLQKPDLLLLDEPTNHLDLFAVEWLEQFLKEYNGTVMVISHDRYFLDEVVTKIFDLEDGEIHVYHTNYSRFVEEKEERLLQEFQAYQEQQKKIKKMKEAIKRLREWANQANPPNEGLHKRARSMERALERMQKLKKPILERKQIGLQFEGQDRSGKDVVVIKEVSKGFADHPLFNEVNLHVRFQERAAIVGRNGTGKTTLLKLLLEEIEPDAGEIRIGSSVKIGYLSQHAYGNMKSDVLEAFREYVAVTEGEARHILAKFLFYGPAVFKKVTQLSGGEKMRLRLAQLMYQDINFLILDEPTNHLDIESREVLEEALEQYNGTILAVSHDRYFLNKLFEKTYWIDEHKLFEFAGNYAWARQKWEERLETQVIKQQRQGRKSIETAPVKKKEARNIEEIETELMHVEEDIYTLECTMEHVVDIKRLEQLYEEKTKKELLRAELYNELENIVE,not soluble
6,MGSDKIHHHHHHMILGEIMEVLAFKNQSLIDHVNDMVKYWERIKYRYLKTIKRALEALNIKLDIEKVDEFMKILIKLHDIGKASKIYQRAIINDQEKLMGFRHELVSAYYTYHILLKKFGDKNLAFIGALTVMLHHEPIIMGQIRNLKKKELTAEVVLDKLKKFDGMIEDFEDLIKKLIGYSIGDIIKNDSNKDDIIRFVIEMSVRARHTPNSEKLRFIVGTLLLPLVMCDYKGAESREGKAPKFAEVLEVESYVI,not soluble
7,MILAILQARMSSTRLPGKVLMPLQRQPMIVRQIERVARSKRIDKLVVATSDRPEDDAIEAAVRREGIAVFRGSLDNVQQRFIGALDAHPADHVVRLTADCPLADPTLIDATIDLCLSKGADYVSNTPEGHAHPKGTDVEVMTAAALRRAAAEATTKEAFEHVTWDLWNQPQRWTCAWLPCFPDQGAVRWTVDRPDDYAFVAAVYDALYPANRAFTSDDIRAFVAGRPDLQDYGGDRRALEHHHHHH,not soluble
8,MILVFLGPPGAGKGTQAKRLAKEKGFVHISTGDILREAVQKGTPLGKKAKEYMERGELVPDDLIIALIEEVFPKHGNVIFDGFPRTVKQAEALDEMLEKKGLKVDHVLLFEVPDEVVIERLSGRRINPETGEVYHVKYNPPPPGVKVIQREDDKPEVIKKRLEVYREQTAPLIEYYKKKGILRIIDASKPVEEVYRQVLEVIGDGN,soluble
9,MRYMMTYDWMETVRNTNQWMGATANSMASYPLFSMVPNPVFNWMSAWGEVTERTFQRMVVKPDWGIRTFTCEDGKDHLVEINTVVERDFGDLIHINVTGRETQPRKVLLVAPMSGHYATLLRSTVKSLLVNCEVYVTDWHNARDIPVSAGKFDVEDYTLYLVDFMRELGPDTHVIAVCQPAPLTLAATAYLAELDPKAQPSTLTLIGGPVDPDATPTEVTDFGRRVTMGQLEQSMIQRVGFKYKGVGRMVYPGLLQLASFMSMNADRHSKAFTDQIQRVMRDEASDHDAHNRFYDEYLAVMDMTAEFYLSTVERVFKKREIARNAFIVDGHKVDISKITDVAVMTVEGANDDISAPGQCIAALDLCTGLADSKKANHLEPGAGHYGIFAGRSWRDNIRPLVIDFMNTNSRKGKSLRPANKNSAA,not soluble
10,MSLTNVVAYIRVSTKSQGDSGLGLEAQRDYIQRAAQANDWNVVGEFVDVVSGKLALEDRPEGAKALTMCKQHNAQLLVAKLDRLSRSVLHIAQLMEQVDFKVATMPQADKFQLHLFAALAQQEREFIATRTKEALASLQRRADAGDAVAQQKVANRAEAQAKGRAVADITAANNIRMSKINTYQTNIEPHLKSCLHDKISEGHHHHHH,soluble
11,MAHHHHHHMAIPPHGFIEAIHASPLRCVLYVMGAGSSAIAQLTSVAGCSRTLLDARVPYAMAAALQMLDDQPPKMVSATVARQMAQHAHHRAVEYSNGDDDGTLVGIGSTSAVQTNRIRHGKDSAFVAAWSQRQVVEFAMELPGHLARAEQEEQVTLLLFKALAECAKVPFEISFVVEPKRISYIVPDSPLRRLLQGEMKFLVFNTYGELRANFVPYVAETSFAVKPENSWKALLFPGSFRPLHWGHTELARAAVRAMATMKGTLNSTSTDTSSPSWNVPDASNVQVTYEIAVDNADKGIIDSDVELKKRVQQFLQRGARVAVTRARLFTEKALLFPGHGFIVGIDTMKRILDPKYYDNSREAMLRAMEFIREQGGYFVVAGRASGGKDAVWEDLTSIEVPAEVESMLISIRKEDFCVDVSSTMLRERNKSTC,not soluble
12,MLKVAIAEDDFRVAQIQEEFLSKIKDVTVIGKALNAKETIELLQKEEIDLLLLDNYLPDGIGTDLLPQIHADFPNVDVIMVTAANENYMLEKAIRNGVSNYLIKPVTLEKFVRTIEDYKRKKQLLHSNNEVNQALIDNFFGTSQTQDIKNLPTGVDPLTLQKVKGIIKGFEEGITIEEMGEQMGASRTTARRYLEYLVATNECTVEYKYGIIGRPERKYRIGRGL,not soluble
13,MTALKVGSESWWQSKHGPEWQRLNDEMFEVTFWWRDPQGSEEYSTIKRVWVYITGVTDHHQNSQPQSMQRIAGTDVWQWTTQLNANWRGSYCFIPTERDDIFSAPSPDRLELREGWRKLLPQAIADPLNPQSWKGGLGHAVSALEMPQAPLQPGWDCPQAPEIPAKEIIWKSERLKNSRRVWIFTTGDVTAEERPLAVLLDGEFWAQSMPVWPVLTSLTHRQQLPPAVYVLIDAIDTTHRAHELPCNADFWLAVQQELLPLVKVIAPFSDRADRTVVAGQSFGGLSALYAGLHWPERFGCVLSQSGSYWWPHRGGQQEGVLLEKLKAGEVSAEGLRIVLEAGIREPMIMRANQALYAQLHPIKESIFWRQVDGGHDALCWRGGLMQGLIDLWQPLFHDRS,soluble
